Test results as given in paper PMC9365860 (Cell Reports, 2022).

Target: Recombinant stabilized SARS-CoV-2 spike for ELISA (Wuhan) (SARS-CoV-2, Wuhan, UniProt P0DTC2, stabilised)
Test: ELISA
Settings: both partners purified

B1: P008_60 IgG (antibody, V domains shown)
VH: EVQLVESGGGVVQPGRSLRLTCAASGFIFSSYGMHWVRQAPGKGLEWVAVISYDGSYKYYADSVKGRFTISRDNSKNTLYLQMNSLRAEDTAVYYCTKADYYDFWSGYQKTYYYYMDVWGKGTTVTISS
VL: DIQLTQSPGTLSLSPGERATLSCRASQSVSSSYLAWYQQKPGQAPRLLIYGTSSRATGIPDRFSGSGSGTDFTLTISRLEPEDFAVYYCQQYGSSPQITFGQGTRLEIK
notes: also called mAb P008_60; P008_060; source: HEK-293F, co-transfected heavy and light plasmids, purified (protein G)
Q: Does B1 bind?
A: binds
